Assay results as given in article PMC1654158.

T1: Signal peptide peptidase (SPP) fluorescent fusion protein (CFP or YFP fused to the NH2- or COOH-terminus of SPP), Q8TCT9
T1 chain: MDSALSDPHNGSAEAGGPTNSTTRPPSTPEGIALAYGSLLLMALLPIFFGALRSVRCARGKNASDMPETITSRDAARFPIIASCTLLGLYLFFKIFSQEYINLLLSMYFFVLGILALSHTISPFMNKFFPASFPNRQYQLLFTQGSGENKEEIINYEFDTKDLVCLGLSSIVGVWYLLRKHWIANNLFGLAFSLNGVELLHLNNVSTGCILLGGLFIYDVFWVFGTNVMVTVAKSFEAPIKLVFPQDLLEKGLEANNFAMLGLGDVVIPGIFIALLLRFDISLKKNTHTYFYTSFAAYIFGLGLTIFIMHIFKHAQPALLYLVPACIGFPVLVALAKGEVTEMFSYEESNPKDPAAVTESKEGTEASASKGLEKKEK

T2: Epitope tagged signal peptide peptidase (SPP): COOH-terminal V5 tagged SPP (SPPCTV5) and NH2-terminal FLAG tagged SPP (…), Q8TCT9
T2 chain: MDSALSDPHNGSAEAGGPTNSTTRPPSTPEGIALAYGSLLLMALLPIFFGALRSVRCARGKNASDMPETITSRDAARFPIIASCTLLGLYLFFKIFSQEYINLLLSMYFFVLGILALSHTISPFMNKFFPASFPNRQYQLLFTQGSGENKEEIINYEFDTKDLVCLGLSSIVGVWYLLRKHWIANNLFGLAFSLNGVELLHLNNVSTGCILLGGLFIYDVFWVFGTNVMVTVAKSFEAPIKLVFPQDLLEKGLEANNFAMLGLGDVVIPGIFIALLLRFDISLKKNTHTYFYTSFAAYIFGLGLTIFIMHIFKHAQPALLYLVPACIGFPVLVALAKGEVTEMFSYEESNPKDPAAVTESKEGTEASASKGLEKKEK


Assays:
[1] = molecular target: T1, Signal peptide peptidase (SPP) …; experiment: FRET or BRET; FLIM (fluorescence lifetime imaging microscopy) in live CHO cells co-transfected with CFP-SPP (donor) and YFP-SPP (acceptor) fusion constructs, 24 hours post-transfection, in Hank's Balanced Salt Solution; donor-only (empty vector) as negative control; conditions: remark: other sources report otherwise
[2] = molecular target: T2, Epitope tagged signal peptide peptidase …; experiment: FRET or BRET; FLIM in fixed (4% paraformaldehyde), permeabilised HEK cells stably overexpressing SPPCTV5 and …; goat anti-V5 labelled with Alexa 488 (donor), mouse anti-FLAG labelled with Cy3 (acceptor); cells expressing only SPPCTV5 as negative control; conditions: remark: other sources report otherwise

Row | CFP donor lifetime (donor CFP at COOH-terminus of SPP, acceptor YFP at COOH-terminus of SPP; donor only 2267 psec) [1] [psec] | CFP donor lifetime (donor CFP at NH2-terminus of SPP, acceptor YFP at COOH-terminus of SPP; donor only 2267 psec) [1] [psec] | CFP donor lifetime (donor CFP at NH2-terminus of SPP, acceptor YFP at NH2-terminus of SPP; donor only 2267 psec) [1] [psec] | Alexa 488 donor lifetime (donor Alexa 488 labeled SPPCTV5, acceptor Cy3 labeled …) [2] [psec] | Alexa 488 donor lifetime (donor Alexa 488 labeled SPPCTV5, acceptor Cy3 labeled …; donor only 2504 psec) [2] [psec] | Binder
1 | 1490 | 1530 | 1760 |  |  | Signal peptide peptidase (SPP) fluorescent fusion protein (CFP or YFP fused to the NH2- or COOH-terminus of SPP), Q8TCT9 1-377 (enzyme) MDSALSDPHNGSAEAGGPTNSTTRPPSTPEGIALAYGSLLLMALLPIFFGALRSVRCARGKNASDMPETITSRDAARFPIIASCTLLGLYLFFKIFSQEYINLLLSMYFFVLGILALSHTISPFMNKFFPASFPNRQYQLLFTQGSGENKEEIINYEFDTKDLVCLGLSSIVGVWYLLRKHWIANNLFGLAFSLNGVELLHLNNVSTGCILLGGLFIYDVFWVFGTNVMVTVAKSFEAPIKLVFPQDLLEKGLEANNFAMLGLGDVVIPGIFIALLLRFDISLKKNTHTYFYTSFAAYIFGLGLTIFIMHIFKHAQPALLYLVPACIGFPVLVALAKGEVTEMFSYEESNPKDPAAVTESKEGTEASASKGLEKKEK
2 |  |  |  | 2200 | 1980 | Epitope tagged signal peptide peptidase (SPP): COOH-terminal V5 tagged SPP (SPPCTV5) and NH2-terminal FLAG tagged SPP (…), Q8TCT9 1-377 (enzyme) MDSALSDPHNGSAEAGGPTNSTTRPPSTPEGIALAYGSLLLMALLPIFFGALRSVRCARGKNASDMPETITSRDAARFPIIASCTLLGLYLFFKIFSQEYINLLLSMYFFVLGILALSHTISPFMNKFFPASFPNRQYQLLFTQGSGENKEEIINYEFDTKDLVCLGLSSIVGVWYLLRKHWIANNLFGLAFSLNGVELLHLNNVSTGCILLGGLFIYDVFWVFGTNVMVTVAKSFEAPIKLVFPQDLLEKGLEANNFAMLGLGDVVIPGIFIALLLRFDISLKKNTHTYFYTSFAAYIFGLGLTIFIMHIFKHAQPALLYLVPACIGFPVLVALAKGEVTEMFSYEESNPKDPAAVTESKEGTEASASKGLEKKEK
